The values below come from PMC10272163, “Genome-wide association studies identify OsWRKY53 as a key regulator of salt tolerance in rice”.

The target in the data set is MBP-OsWRKY53 (Oryza sativa (rice), UniProt A7BEY7 1-487). Briefly: EMSA; 60 fmol probe, 2 ug protein; EMSA: 20 uL, 25 C 30 min, LightShift kit buffer (composition not given), 6% native PAGE, 0.5x TBE pH 8.3, 4 C; SPR: CM5 chip with anti-biotin antibody capturing biotin-oligo, 10 uL/min, reaction buffer composition and temperature not given. Conditions: protein: recombinant; tags: MBP (N-terminal, pMal-c2x); label: biotin. On the technique in general: A gel shift assay detects complexes by their altered migration in electrophoresis.
Chain of MBP-OsWRKY53 (A7BEY7 entry or part of it): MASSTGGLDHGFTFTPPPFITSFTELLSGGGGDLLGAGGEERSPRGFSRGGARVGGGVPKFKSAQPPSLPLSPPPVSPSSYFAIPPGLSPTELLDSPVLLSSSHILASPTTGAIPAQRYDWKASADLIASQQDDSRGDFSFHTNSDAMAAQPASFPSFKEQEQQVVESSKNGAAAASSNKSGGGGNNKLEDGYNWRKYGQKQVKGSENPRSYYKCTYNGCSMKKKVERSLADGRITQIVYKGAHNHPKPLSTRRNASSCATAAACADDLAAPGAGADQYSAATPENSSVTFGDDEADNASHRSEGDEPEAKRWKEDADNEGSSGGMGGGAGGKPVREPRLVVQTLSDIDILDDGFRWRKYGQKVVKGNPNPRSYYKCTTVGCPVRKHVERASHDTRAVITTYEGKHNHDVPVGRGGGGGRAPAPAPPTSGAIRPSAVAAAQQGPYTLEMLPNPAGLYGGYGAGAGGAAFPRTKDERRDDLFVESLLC

B1: OsHKT1;5 (SKC1) promoter W-box probe, 48 bp (SKC1-biotin-F1) (dsDNA)
DNA 1: ATAAGATGTTTTTGACTTTGGTCAAAGTCAAACTGTTTATGTTTGACC
DNA 2: GGTCAAACATAAACAGTTTGACTTTGACCAAAGTCAAAAACATCTTAT
B1: the binding result is recorded as “binds”.

B2: OsMKK10.2 promoter W-box probe, 48 bp (MKK10.2-biotin-F1) (dsDNA)
DNA 1: CGGTTTGGGAACCGACTTAGGGCGGTCAAGGCGCGAGCTGGCGCTCCG
DNA 2: CGGAGCGCCAGCTCGCGCCTTGACCGCCCTAAGTCGGTTCCCAAACCG
For B2, the binding result is given as “binds”.
